The values below come from article PMC5915741, “A Viral Suppressor Modulates the Plant Immune Response Early in Infection by Regulating MicroRNA Activity” (mBio, 2018).

The Kd is the equilibrium constant for the complex coming apart. The Ki is the dissociation constant of the complex between target and ligand, obtained from inhibition or displacement. As a reminder, the stoichiometry N is a count of units in the complex or per binding partner.

For data set [1], the target named is T1, p19 (Carnation Italian ringspot virus (CIRV), UniProt Q66104 1-172).
T1 sequence: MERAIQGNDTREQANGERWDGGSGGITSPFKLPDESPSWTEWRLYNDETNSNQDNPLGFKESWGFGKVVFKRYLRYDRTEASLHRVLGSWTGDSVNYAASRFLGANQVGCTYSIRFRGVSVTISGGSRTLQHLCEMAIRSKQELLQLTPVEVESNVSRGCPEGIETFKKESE
In words: EMSA. The settings on record: protein: recombinant, tags: GST (pGEX-6P-1) removed by PreScission protease, chain copies: 2. Background: In EMSA bound probe runs differently from free probe, usually more slowly.

The target of data set [2] is T2, 2b (Tomato aspermy virus (TAV), UniProt Q8UYT3 1-95).
T2 sequence: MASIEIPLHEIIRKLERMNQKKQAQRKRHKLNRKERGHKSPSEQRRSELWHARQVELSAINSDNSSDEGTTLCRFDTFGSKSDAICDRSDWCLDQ
In words: EMSA. The conditions noted are these: protein: recombinant, tags: His-SUMO removed by SUMO protease, chain copies: 2.

For data set [3], the target named is T2, 2b. In words: competition EMSA; KC vs labeled gf698 siRNA, 1.9 nM 2b monomer. The settings on record: protein: recombinant, tags: His-SUMO removed by SUMO protease, chain copies: 2.
The target of data set [4] is T1, p19. Description: competition EMSA; KC vs labeled gf698 siRNA, 0.5 nM p19 dimer. The conditions noted are these: protein: recombinant, tags: GST (pGEX-6P-1) removed by PreScission protease, chain copies: 2.
Data set [5] concerns the molecule itself. Description: AUC; sedimentation equilibrium (18,000 rpm) and velocity (40,000 rpm), 20°C, CIRV p19 at 1.2 to 13 µM in buffer D; no RNA.
[6] abbreviates: miRNA duplex with mismatches, 3' overhangs.
Setting [7] is: label: 5'-32P, miRNA duplex with mismatches, 3' overhangs.
[8] abbreviates: miRNA duplex with mismatches, 22 nt star strand.

B1: AtmiR162 (= NbmiR162b per Table 1) (dsRNA)
RNA 1: UCGAUAAACCUCUGCAUCCAG
RNA 2: GGAGGCAGCGGUUCAUCGAUC
modifications: 5' phosphate on both strands
Consider B1, for which the results for the Kd with p19 [1] (setting [6]) and with 2b [2] (setting [6]) were 0.07 ± 0.03 nM and 0.46 ± 0.06 nM, respectively. The Ki in the data set with 2b [3] (setting [6]) was determined as 0.67 ± 0.09 nM; with p19 [4] (setting [6]), 0.12 ± 0.05 nM.

B2: NbmiR162a (Table 1 name) (dsRNA)
RNA 1: UCGAUAAACCUCUGCAUCCAG
RNA 2: GGAGGCAGCGGUUUAUCGAUC
modifications: 5' phosphate on both strands
As to B2, the Kd in the data set with p19 [1] (setting [7]) stood at 0.14 ± 0.05 nM.

B3: AtmiR403 (dsRNA)
RNA 1: UUAGAUUCACGCACAAACUCG
RNA 2: UGUUUUGUGCUUGAAUCUAAUU
modifications: 5' phosphate on both strands
As for B3, the Kd in the data set with p19 [1] (setting [8]) came to 1.37 ± 0.29 nM; with 2b [2] (setting [8]), 0.26 ± 0.03 nM. The values for the Ki with 2b [3] (setting [8]) and with p19 [4] (setting [8]) were 0.05 ± 0.004 nM and 1.09 ± 0.43 nM, respectively.

B4: AtmiR168a (= NbmiR168d,e) (dsRNA)
RNA 1: UCGCUUGGUGCAGGUCGGGAA
RNA 2: CCCGCCUUGCAUCAACUGAAU
modifications: 5' phosphate on both strands
On to B4, for which the Kd is 2.29 ± 0.78 nM with p19 [1] (setting [6]) and 1.24 ± 0.15 nM with 2b [2] (setting [6]). The Ki stood at 12.1 ± 0.7 nM in the data set with 2b [3] (setting [6]) and 1.59 ± 0.35 nM with p19 [4] (setting [6]).

B5: Carnation Italian ringspot virus (CIRV) p19 protein (natural protein)
chain: T1 sequence
notes: p19 viral suppressor of RNA silencing of Carnation Italian ringspot virus (CIRV); the p19 open reading frame cloned into pGEX-6P-1; theoretical mass of the monomer 19.479 kDa; GST removed with PreScission protease; also called Tombusvirus p19; source: E. coli BL21(DE3) RIPL, purified (GSTrap, PreScission cleavage, Resource Q anion exchange)
Consider B5, for which the “stoichiometry N” value in data set [5] was 2.

B6: AtmiR168b (dsRNA)
RNA 1: UCGCUUGGUGCAGGUCGGGAA
RNA 2: CCCGUCUUGUAUCAACUGAAU
modifications: 5' phosphate on both strands
As for B6, the Kd with p19 [1] (setting [7]) was found to be 4.83 ± 1.57 nM.

B7: NbmiR403a (dsRNA)
RNA 1: UUAGAUUCACGCACAAACUCG
RNA 2: UGUUUGUGCGUGAAUCUGACA
modifications: 5' phosphate on both strands
As for B7, the Kd in the data set with p19 [1] (setting [6]) was 0.11 ± 0.02 nM; with 2b [2] (setting [6]), 0.22 ± 0.03 nM. For the same molecule, the Ki with 2b [3] (setting [6]) was 0.01 ± 0.006 nM.

B8: NbmiR168a,b,c (dsRNA)
RNA 1: UCGCUUGGUGCAGGUCGGGAC
RNA 2: CCCGCCUUGCAUCAACUGAAU
modifications: 5' phosphate on both strands
On to B8, for which, in the data set with p19 [1] (setting [7]), the Kd was 6.57 ± 1.5 nM.

B9: NbmiR403b (dsRNA)
RNA 1: UUAGAUUCACGCACAAACUCG
RNA 2: UGUUUGUGCGUGAUUCUGACA
modifications: 5' phosphate on both strands
In the case of B9, the figures for the Kd with p19 [1] (setting [6]) and with 2b [2] (setting [6]) were 0.37 ± 0.06 nM and 0.26 ± 0.03 nM, respectively. Besides, the Ki with 2b [3] (setting [6]) was 0.02 ± 0.003 nM.

B10: gf698 siRNA (dsRNA)
RNA 1: UAGUUCAUCCAUGCCAUGUGU
RNA 2: ACAUGGCAUGGAUGAACUAUA
modifications: 5' phosphate on both strands
Consider B10, for which the values for the Kd in the data set with p19 [1] (2 nt 3' overhangs) and with 2b [2] (2 nt 3' overhangs) were 0.06 ± 0.04 nM and 0.68 ± 0.15 nM, respectively. Also, the Ki came to 0.53 ± 0.08 nM with 2b [3] (2 nt 3' overhangs) and 0.07 ± 0.03 nM with p19 [4] (2 nt 3' overhangs).
